Measurements: article PMC6393240, “DNA replication initiation in Bacillus subtilis: structural and functional characterization of the essential DnaA–DnaD interaction” (Nucleic Acids Research, 2018)
Changes are numbered by the printed parent chain. Numbers in names are those of the source.

B1: DnaA domain I (residues 1–81) of Bacillus subtilis DnaA (domain or fragment, UniProt P05648 1-81, looked up)
chain: MENILDLWNQALAQIEKKLSKPSFETWMKSTKAHSLQGDTLTITAPNEFARDWLESRYLHLIADTIYELTGEELSIKFVIP
notes: DnaA, Bacillus subtilis, domain I, residues 1-81; After thrombin cleavage a residual N-terminal Gly-Ser-His leader remains; 15N-labelled (or 13C/15N) where it is the observed partner in NMR, unlabelled in the reverse titration; also called N-terminal domain I of DnaA; DnaA NTD; not shown: His tag, N-terminal, cleaved
B2: DnaD196, truncated DnaD lacking the C-terminal residues 197–232 (domain or fragment)
chain: MKKQQFIDMQEQGTSTIPNLLLTHYKQLGLNETELILLLKIKMHLEKGSYFPTPNQLQEGMSISVEECTNRLRMFIQKGFLFIEECEDQNGIKFEKYSLQPLWGKLYEYIQLAQNQTQERKAEGEQKSLYTIFEEEFARPLSPLECETLAIWQDQDQHDAQLIKHALKEAVLSGKLSFRYIDRILFEWKKNGLKTV
B3: DnaD, full length, Bacillus subtilis (natural protein)
chain: MKKQQFIDMQEQGTSTIPNLLLTHYKQLGLNETELILLLKIKMHLEKGSYFPTPNQLQEGMSISVEECTNRLRMFIQKGFLFIEECEDQNGIKFEKYSLQPLWGKLYEYIQLAQNQTQERKAEGEQKSLYTIFEEEFARPLSPLECETLAIWQDQDQHDAQLIKHALKEAVLSGKLSFRYIDRILFEWKKNGLKTVEQAKIHSQKFRRVQAKQNEPQKEYKRQVPFYNWLEQ
B4: Truncated DnaD DDBH2 domain (residues 129–196) (domain or fragment, Bacillus subtilis, UniProt P39787 129-196, looked up)
chain: LYTIFEEEFARPLSPLECETLAIWQDQDQHDAQLIKHALKEAVLSGKLSFRYIDRILFEWKKNGLKTV
notes: DnaD, Bacillus subtilis, DDBH2 domain truncated at the C-terminus, residues 129-196; Made from the DDBH2 (129-232) construct by Q5 site directed mutagenesis; A residual N-terminal Gly-Ser-His remains after thrombin cleavage; also called DnaD DDBH2 domain truncation; truncated DDBH2; not shown: His tag, N-terminal, cleaved
B5: DnaA(N191C/A198C) (natural protein, Bacillus subtilis, UniProt P05648 1-446, looked up)
chain: MENILDLWNQALAQIEKKLSKPSFETWMKSTKAHSLQGDTLTITAPNEFARDWLESRYLHLIADTIYELTGEELSIKFVIPQNQDVEDFMPKPQVKKAVKEDTSDFPQNMLNPKYTFDTFVIGSGNRFAHAASLAVAEAPAKAYNPLFIYGGVGLGKTHLMHAIGHYVIDHNPSAKVVYLSSEKFTNEFICSIRDNKCVDFRNRYRNVDVLLIDDIQFLAGKEQTQEEFFHTFNTLHEESKQIVISSDRPPKEIPTLEDRLRSRFEWGLITDITPPDLETRIAILRKKAKAEGLDIPNEVMLYIANQIDSNIRELEGALIRVVAYSSLINKDINADLAAEALKDIIPSSKPKVITIKEIQRVVGQQFNIKLEDFKAKKRTKSVAFPRQIAMYLSREMTDSSLPKIGEEFGGRDHTTVIHAHEKISKLLADDEQLQQHVKEIKEQLK
notes: DnaA, Bacillus subtilis, double cysteine mutant N191C/A198C; also called DnaA(N191C/A198C) mutant protein
B6: DnaA(A198C), labelled with Cy3B or Atto647N (natural protein, Bacillus subtilis, UniProt P05648 1-446, looked up)
chain: B5 chain with C191N
modifications: Cy3B-maleimide or Atto647N-maleimide on the single cysteine A198C (mixed 1:1:2 Cy3B-labelled: Atto647N labelled: un-labelled)
notes: DnaA, Bacillus subtilis, single cysteine mutant A198C; Printed once as DnaA^N198C and once as DnaA^A19C in the methods (misprints)

Tests used:
[1] = molecular target: T1, DnaD DDBH2 domain (residues 129–232) of Bacillus subtilis DnaD (Bacillus subtilis, UniProt P39787 129-232); experiment: NMR titration; reverse titration: unlabelled DnaA domain I titrated into 15N-labelled DnaD DDBH2 (100 μM) up to 8:1 excess; 50 mM potassium phosphate pH 7.4, 100 mM NaCl; 25°C; KD averaged over five residues; details: both partners purified
T1 construct: DnaD, Bacillus subtilis, DDBH2 domain, residues 129-232; A residual N-terminal Gly-Ser-His remains after thrombin cleavage; 15N-labelled in the reverse titration; also called C-terminal DDBH2 domain; not shown: His tag, N-terminal, cleaved
T1 sequence (looked up): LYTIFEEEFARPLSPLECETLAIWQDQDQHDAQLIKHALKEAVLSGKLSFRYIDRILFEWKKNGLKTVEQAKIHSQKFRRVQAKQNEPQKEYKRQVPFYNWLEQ

[2] = molecular target: T1, DnaD DDBH2 domain (residues 129–232) of …; experiment: NMR titration; 1H-15N HSQC, chemical shift perturbations; unlabelled DnaD DDBH2 (129-232 or 129-196) titrated into 15N-labelled DnaA domain I (100 μM) up to 8:1 excess; 50 mM potassium phosphate pH 7.4, 100 mM NaCl; 25°C; KD averaged over five residues; details: both partners purified
[3] = molecular target: DnaA(N191C), labelled with Cy3B or Atto647N (Bacillus subtilis) (UniProt P05648)
[4] = molecular target: DnaA(N191C), labelled with Cy3B or Atto647N (Bacillus subtilis) (UniProt P05648); remark: listed apart in the source
[5] = molecular target: B1; experiment: NMR titration; 1H-15N HSQC, chemical shift perturbations; unlabelled DnaD DDBH2 (129-232 or 129-196) titrated into 15N-labelled DnaA domain I (100 μM) up to 8:1 excess; 50 mM potassium phosphate pH 7.4, 100 mM NaCl; 25°C; KD averaged over five residues; details: both partners purified
[6] = molecular target: the molecule itself; experiment: cross-linking; BMOE (2 mM) cross-linking of 1.5 μM DnaA(N191C/A198C) with 3 nM 819 bp DNA, 2 mM ATP, 37°C; SDS-PAGE, Coomassie
[7] = molecular target: the molecule itself; experiment: FRET or BRET; single-molecule FRET, confocal, room temperature; 1.5 μM DnaA (1:1:2 Cy3B-labelled: Atto647N labelled: un-labelled) with 3 nM 819 bp oriC DNA fragment and 2 mM ATP, 37°C 15 min; measured at ∼100 pM DnaA in imaging buffer

Binder: B1
- Kd [1]: 665 ± 251 µM
- Kd [2]: 768 ± 168 µM

Binder: B2
- single-molecule FRET of labelled DnaA–DNA filaments: apparent FRET efficiency E* with DnaD196 (24 μM); E* ∼0.7 in its absence [3]: 0.5

Binder: B3
- single-molecule FRET of Cy3B/Atto647N-labelled DnaA–DNA filaments: apparent FRET efficiency E* with DnaD (24 μM) added before or after DnaA; E* ∼0.7 without DnaD [4]: 0.5

Binder: B4
- binding result [5]: binds

Binder: B5
- binding result [6]: binds

Binder: B6
- binding result [7]: binds
